The record followed here is PMC8948245, “Mechanistic insights into the regulation of plant phosphate homeostasis by the rice SPX2 – PHR2 complex” (Nature Communications, 2022).

The target in data set [1] is T1, His-tagged PHR2^225–362 (rice PHR2, MYB domain and CC domain) (rice (Oryza sativa), UniProt Q6Z156 225-362).
T1 construct: pET21b, C-terminal 8×His tag; codon-optimised synthetic cDNA; also called PHR2-His; source: E. coli BL21(DE3), co-expressed with SPX2; not shown: 8×His, C-terminal, kept
In words: AUC; sedimentation velocity of the purified SPX2/PHR2 complex, 25 mM Tris-HCl pH 8.0, 150 mM NaCl, 1 mM InsP6, 18 °C, 0.7 mg ml^-1. The conditions noted are these: both partners purified.

Data set [2] concerns the molecule itself. The data set is described as follows: cross-linking; mixture of PHR2^225–362-His complexes with SPX2-flag homodimer and SPX2/SPX2-flag heterodimer from the tandem pull-down; about 30 μM with 200 μM M2M, room temperature, 30 min; SDS-PAGE with or without 100 mM DTT.
Data set [3] deals with the molecule itself. The data set is described as follows: cross-linking; about 30 μM purified SPX2/PHR2^225–362 complex with 200 μM M2M, room temperature, 30 min, 25 mM Tris–HCl pH 8.0, 150 mM NaCl, 1 mM InsP6; SDS-PAGE with or without 100 mM DTT.
Data set [4] concerns the target PHR2 MYB domain (crystal) (Oryza sativa, UniProt B8B5N8 180-313). In words: X-ray crystallography, 2.7 A; EMSA: 10 nM FAM-DNA, 0.3375-0.8 uM PHR2, 25 mM Tris-HCl pH 8.0, 150 mM NaCl, 5 mM DTT, 10% glycerol, 200 ng/ml heparin, 4 C, 30 min; crystal: 13% PEG 3350, 0.1. To be noted: protein: recombinant; tags: C-terminal 8xHis (general PHR2 cloning); chain copies: 2; 5' overhang 1 nt on each strand, 15 bp. (Mobility shift assays separate free from complexed probe on a gel.)

T1 sequence (Q6Z156 225-362): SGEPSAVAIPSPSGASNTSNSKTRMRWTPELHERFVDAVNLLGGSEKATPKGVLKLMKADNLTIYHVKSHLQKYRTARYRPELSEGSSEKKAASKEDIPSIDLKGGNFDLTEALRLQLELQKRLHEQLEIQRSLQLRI
Sequence of PHR2 MYB domain (crystal) (B8B5N8 180-313): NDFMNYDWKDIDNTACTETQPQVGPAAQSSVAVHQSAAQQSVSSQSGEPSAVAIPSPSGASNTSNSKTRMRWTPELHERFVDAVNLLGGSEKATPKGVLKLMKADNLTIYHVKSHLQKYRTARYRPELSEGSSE

B1: full-length rice SPX2 (SPX2^1–280), untagged (natural protein, rice (Oryza sativa), UniProt Q6Z784 1-280, looked up)
chain: MKFGKSLSSQIVEMQPEWRDNFLSYKDLKKRLNLISGGAAGERASKRRRVGGATAVTVTAAAAGGMTLEQAGFVGLLDAELDKFNFFFLEKEEEYVIKQKELRERKMASAEEVMRVRKEIVDLHGEMVLLENYSALNYTGLVKILKKYDKRTGSMIRLPFVQKVLQQPFFTTDLLYKLVKECEEMLDQLMPTNEHSVASEDGKDDSEGEEKGSKPSSSSSANGGAVPGEAEAEDERSTDMKSTVTAALRALREIRSGSSTVSVFSLPPLHGSNGQDEPGR
notes: rice (Oryza sativa) SPX2 (OsSPX2), full length, residues 1-280; pBB75 vector without any tag; also called OsSPX2; source: E. coli BL21(DE3), co-expressed with PHR2
In the case of B1, in data set [1], the “stoichiometry N” value was 1 SPX2:PHR2 ratio (2:2).

B2: SPX2^K106C-flag (natural protein, rice (Oryza sativa), UniProt Q6Z784 1-280, looked up)
chain: MKFGKSLSSQIVEMQPEWRDNFLSYKDLKKRLNLISGGAAGERASKRRRVGGATAVTVTAAAAGGMTLEQAGFVGLLDAELDKFNFFFLEKEEEYVIKQKELRERCMASAEEVMRVRKEIVDLHGEMVLLENYSALNYTGLVKILKKYDKRTGSMIRLPFVQKVLQQPFFTTDLLYKLVKECEEMLDQLMPTNEHSVASEDGKDDSEGEEKGSKPSSSSSANGGAVPGEAEAEDERSTDMKSTVTAALRALREIRSGSSTVSVFSLPPLHGSNGQDEPGR
notes: rice (Oryza sativa) SPX2, residues 1-280, K106C; source: Ni-NTA pull-down and flag pull-down in tandem; not shown: 3×flag, N-terminal, kept
Regarding B2, the binding result in data set [2] is listed as “binds”.

B3: SPX2^1-280_K106C (natural protein, rice (Oryza sativa), UniProt Q6Z784 1-280, looked up)
chain: MKFGKSLSSQIVEMQPEWRDNFLSYKDLKKRLNLISGGAAGERASKRRRVGGATAVTVTAAAAGGMTLEQAGFVGLLDAELDKFNFFFLEKEEEYVIKQKELRERCMASAEEVMRVRKEIVDLHGEMVLLENYSALNYTGLVKILKKYDKRTGSMIRLPFVQKVLQQPFFTTDLLYKLVKECEEMLDQLMPTNEHSVASEDGKDDSEGEEKGSKPSSSSSANGGAVPGEAEAEDERSTDMKSTVTAALRALREIRSGSSTVSVFSLPPLHGSNGQDEPGR
notes: rice (Oryza sativa) SPX2, residues 1-280, K106C; also called SPX2^K106C
Turning to B3, the binding result in data set [3] is reported as “binds”.

B4: P1BS crystal DNA (dsDNA)
DNA 1: GCTTGAGGATATCCGA
DNA 2: CTCGGATATCCTCAAG
As to B4, the binding result in data set [4] is listed as “binds”.
